In patent US20240018262A1:

Legend:
[1] = target: GPC3 expressed on hepatoma cell line HepG2 (human) (UniProt P51654); assay: flow cytometry on HepG2 cells, secondary antibody alone (background control); mean fluorescence
[2] = target: GPC3 expressed on hepatoma cell line HepG2 (human) (UniProt P51654); assay: flow cytometry on HepG2 cells, secondary antibody alone (background control); median fluorescence

GPC3 expressed on hepatoma cell line HepG2 (human), sequence (P51654 25-554 limits assumed): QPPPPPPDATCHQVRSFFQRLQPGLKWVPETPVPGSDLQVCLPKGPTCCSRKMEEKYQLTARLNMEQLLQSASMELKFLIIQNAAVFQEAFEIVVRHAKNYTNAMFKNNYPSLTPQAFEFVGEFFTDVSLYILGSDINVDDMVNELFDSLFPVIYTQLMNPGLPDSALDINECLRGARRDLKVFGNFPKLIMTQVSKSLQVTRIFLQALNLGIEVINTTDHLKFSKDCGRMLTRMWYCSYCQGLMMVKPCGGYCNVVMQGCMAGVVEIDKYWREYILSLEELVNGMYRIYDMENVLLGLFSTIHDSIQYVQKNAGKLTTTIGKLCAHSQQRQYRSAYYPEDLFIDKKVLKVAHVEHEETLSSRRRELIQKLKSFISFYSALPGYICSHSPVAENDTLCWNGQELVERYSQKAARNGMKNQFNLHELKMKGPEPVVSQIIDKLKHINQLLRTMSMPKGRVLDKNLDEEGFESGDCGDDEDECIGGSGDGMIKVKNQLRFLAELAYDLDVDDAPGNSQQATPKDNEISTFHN

Mean [1]: 243 | Median [2]: 205
Substance: PE-conjugated goat anti-mouse IgG (Biolegend Inc., cat #405307) (antibody)
